# Test results from the RNAGym collection of RNA variant scans (doi:10.7554/elife.80360).
# B1: Hairpin Ribozyme (parent)
# chain: GUCCUCUUUCACGUGCGCGUGAAAGAGAGAAGUGAACCAGAGAAACACACGUUGUGGUAUAUUACCUGGUA
# Variants of: B1
# Test: self-cleavage, relative activity (ratio to wild type); higher = more cleavage; co-transcriptional
row,Variant,self-cleavage
1,A47C G56A,0.233
2,C46A U60G,0.102
3,A47C C66G,0.17
4,A47C C66U,0.155
5,C46A G69U,0.171
6,C46A G69C,0.0874
7,C46U A61U,0.267
8,A47U A71C,0.304
9,A47G G54U,0.163
10,A47U A61C,0.243
11,A47U A61G,0.147
12,C46A U52G,0.119
13,C46A U52C,0.271
14,A47G A49C,0.307
15,A47G A49G,0.129
16,C46U G57C,0.0631
17,C46U G57U,0.234
18,C46U G57A,0.186
19,C46G U67A,0.094
20,C46U G54C,0.149
21,A47G C66U,0.239
22,C46A U70A,0.205
23,C46A U70C,0.026
24,C46A U70G,0.0934

row,Variant,self-cleavage
1,A47G G69A,0.0811
2,A47G C50U,0.101
3,C46U A59U,0.149
4,C46U A59G,0.112
5,C46U G68C,0.123
6,A47U U58C,0.133
7,A47U U58G,0.137
8,C46A C66U,0.15
9,C46A C66G,0.14
10,C46A C66A,0.0901
11,A47G A64U,0.167
12,A47C C65U,0.219
13,C46G A49U,0.0713
14,A45U A64U,0.0728
15,A45U A64G,0.16
16,A47G G68C,0.143
17,A47G G68U,0.104
18,C46U C65A,0.184
19,C46A U62C,0.193
20,C46U U60G,0.223
21,A45U C65U,0.175
22,C46G A71U,0.211
23,A47C A64C,0.233
24,A47C A64G,0.265

row,Variant,self-cleavage
1,C46U U67C,0.11
2,C46U U67A,0.0755
3,C46U A64U,0.198
4,C46U U58G,0.0629
5,A47C U52C,0.376
6,A47C U52G,0.231
7,A47C G54A,0.208
8,A47U C48U,0.112
9,A47U C48A,0.157
10,A47C U58A,0.316
11,C46G A47U,0.136
12,A45U U53A,0.151
13,A45U U53G,0.263
14,C46G C65G,0.078
15,A47C C50U,0.303
16,A47C G57C,0.0853
17,A47C G57U,0.275
18,A47U G56A,0.187
19,A47U G56C,0.125
20,C46A U55A,0.204
21,C46U U62A,0.148
22,C46A U67G,0.142
23,C46A U67C,0.11
24,C46G G69U,0.105

row,Variant,self-cleavage
1,A47C A71U,0.147
2,A47C A71G,0.344
3,A47C A59U,0.112
4,A47C A59C,0.19
5,A45U U60A,0.147
6,A45U U60G,0.188
7,A45U C50U,0.123
8,A47C A61C,0.152
9,C46A A71U,0.161
10,A47G,0.162
11,A47C,0.335
12,A47U,0.154
13,A47G G51A,0.15
14,A47G G57U,0.179
15,A47G A71C,0.599
16,A47G A71U,0.221
17,A45U C46U,0.12
18,A47G U52A,0.0547
19,A45U A71U,0.156
20,A45U A71G,0.189
21,A45U A71C,0.286
22,A47U U53G,0.108
23,A47C A49U,0.171
24,C46U U52G,0.197

row,Variant,self-cleavage
1,A45U G69C,0.0735
2,A45U C48G,0.14
3,A45U G51U,0.209
4,C46A A61G,0.0812
5,A45U U62C,0.127
6,C46G G56U,0.173
7,C46G G56C,0.123
8,C46G G56A,0.127
9,C46G U62G,0.14
10,C46G U62C,0.249
11,C46A C50G,0.159
12,C46A C50A,0.117
13,A47U A49G,0.161
14,C46A G56C,0.122
15,A47U A59U,0.194
16,A45U G68C,0.202
17,C46A C48U,0.138
18,C46A C48G,0.211
19,C46A C48A,0.127
20,A47G G56U,0.169
21,C46G A64U,0.185
22,C46G A64C,0.152
23,C46G A64G,0.144
24,A47G U58A,0.221

row,Variant,self-cleavage
1,C46U G69U,0.172
2,C46U G69A,0.123
3,A47G U67A,0.136
4,A47G U67C,0.129
5,A47G C48U,0.185
6,A47C G69C,0.196
7,C46U A71U,0.121
8,A45U A61U,0.122
9,A45U A61C,0.0246
10,A47G C65A,0.0744
11,A45U U52G,0.122
12,A45U U52C,0.103
13,C46A G57A,0.177
14,A47C U60G,0.324
15,A47C U60A,0.219
16,C46G G57A,0.0965
17,C46G G57C,0.0539
18,C46U G56U,0.0878
19,A47G U53C,0
20,A47G U53A,0.176
21,A45U G57U,0.166
22,C46G C48G,0.0704
23,C46A C65U,0.259
24,A47C G68C,0.195

row,Variant,self-cleavage
1,A47C G68A,0.268
2,C46A G68U,0.137
3,C46A U58C,0.206
4,C46A U53G,0.159
5,C46A U53A,0.139
6,C46A U53C,0.148
7,A47C U55G,0.136
8,C46U U70A,0.255
9,C46U U70G,0.189
10,A47G U70G,0.115
11,A47G U70C,0.1
12,C46A U63G,0.092
13,A45U G56C,0.198
14,A47U G57C,0.157
15,A47C U62C,0.187
16,C46G U55C,0.151
17,C46A A49G,0.0498
18,C46A A49U,0.149
19,C46G A59G,0.185
20,C46G A59C,0.219
21,A47U U62G,0.158
22,A47C U70C,0.298
23,A45U U67A,0.0841
